Results on 4 molecules are retold here after patent publication US7265263B1, “Potato transcription factors, methods of use thereof, and a method for enhancing tuber development” (Iowa State University Research Foundation, Inc., priority 2002, dated 2007).

The subject of experiment [1] is POTH1. In words: Yeast two-hybrid interaction with POTH1. As to conditions: nutritional selection and lacZ activation, yeast AH109. In kind it is binding, Solanum tuberosum. From the text:
(§1) The Matchmaker two-hybrid system (Clontech, Calif.) was used for the yeast two-hybrid screen. Yeast transformation and plasmid rescue into DH5-α E. coli cells were according to the manufacturer's instructions. Full-length POTH1 was cloned into the pBridge (Clontech, Calif.) vector and used as bait to screen the potato (S. tuberosum ‘Desireé’) stolon cDNA library in pAD-GAL4-2.1 (Stratagene, Calif.). Positive interactions were confirmed by cotransforming yeast strain AH109 with each purified pAD plasmid and pBridge: POTH1 and plating on -leucine/-tryptophan (transformation control) and -leucine/-tryptophan/-histidine/-adenine (selection) nutrient medium. Induction of the AH109 reporter gene, lacZ, was measured with a yeast β-galactosidase assay kit (Pierce Chemicals). β-galactosidase activity (FIG. 9B) was determined from a known density of yeast cells and calculated as 1000×OD420/time of color reaction (minutes)×volume of yeast culture (ml)×OD600.
The StBEL-05 deletion constructs were amplified by PCR, then cloned into the vector, pGAD, in-frame with the GAL4 activation domain. POTH1 deletion constructs were amplified by PCR, and cloned into pBridge (Clontech) in-frame with the GAL4 binding domain. Sequencing of selected cDNAs and constructs was performed at the Iowa State University DNA Facility. For deletion analysis, modified constructs of POTH1 were cloned into the pBridge vector for fusion with the DNA-binding domain of GAL4 (FIG. 10A). For StBEL-05, constructs were cloned into the pGAD vector for fusion with the activating domain of GAL4 (FIG. 10B). Deletion constructs were made from both the amino and carboxy termini. These mutants were then tested for interaction in the yeast two-hybrid system by cotransforming into yeast strain AH109 with the corresponding full-length partner (StBEL-05 in pGAL4 or POTH1 in pBridge). All constructs were sequenced to verify that they were in-frame. Positive interactions were verified for lacZ induction by using a β-galactosidase assay (Pierce Chemical Company). For POTH1, seven deletion constructs were tested (FIG. 10A). For the BEL TFs, a fusion construct of StBEL-05 (653 aa of StBEL-05 sequence) and nine deletion constructs were tested (FIG. 10B).

The test system of experiment [2] is POTH1. Put plainly: In vitro binding assay (immunoprecipitation) with POTH1. On the set-up: species or system Solanum tuberosum. The note with it: in vitro transcription/translation, anti-GAD. The protocol:
In vitro binding experiments were performed as described by Ni et al., “PIF3, a Phytochrome-Interacting Factor Necessary for Normal Photoinduced Signal Transduction, is a Novel Basic Helix-Loop-Helix Protein,” Cell 95:657-667 (1998), which is hereby incorporated by reference in its entirety. The full-length sequence for POTH1 was cloned into a pET17b/GAD fusion cassette and transcribed under the control of the T7 promoter. […] Each 50 μl TnT reaction contained 2.0 μg of template plasmid DNA and 20 μmol (20 μCi) of labeled ^35S-methionine. The POTH1:GAD/BEL complex was immunoprecipitated with anti-GAD antibodies (Santa Cruz Biotechnology, Calif.). The proteins from the pellet (one-half the fraction) and for the prey (one-fourth of the reaction volume) were resolved on a 10% SDS-PAGE gel and visualized by autoradiography.

In experiment [3] the target is T1, GAD:POTH1 fusion protein (Solanum tuberosum).
T1 construct: 35S-methionine labelled, made by in vitro transcription/translation for the immunoprecipitation; also called POTH1:GAD
T1 chain: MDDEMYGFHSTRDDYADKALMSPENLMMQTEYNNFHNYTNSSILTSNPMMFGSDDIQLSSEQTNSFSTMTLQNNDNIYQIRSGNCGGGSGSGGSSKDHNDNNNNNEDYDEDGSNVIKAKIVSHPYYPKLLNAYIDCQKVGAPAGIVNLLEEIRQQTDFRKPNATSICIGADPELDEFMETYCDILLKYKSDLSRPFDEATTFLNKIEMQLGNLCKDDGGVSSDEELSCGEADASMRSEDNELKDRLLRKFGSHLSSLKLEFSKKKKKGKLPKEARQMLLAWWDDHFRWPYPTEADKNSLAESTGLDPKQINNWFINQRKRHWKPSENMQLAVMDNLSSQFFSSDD
Put plainly: in vitro transcription/translation, immunoprecipitation assay. The procedure:
(§2) In vitro binding experiments were performed as described by Ni et al., "PIF3, a Phytochrome-Interacting Factor Necessary for Normal Photoinduced Signal Transduction, is a Novel Basic *Helix*-Loop-Helix Protein," *Cell* 95:657-667 (1998), which is hereby incorporated by reference in its entirety. The full-length sequence for POTH1 was cloned into a pET17b/GAD fusion cassette and transcribed under the control of the T7 promoter. The BEL cDNAs were cloned into pGEM11Z vectors and were transcribed under the control of the T7 promoter. ^35S-methionine labeled bait and prey proteins were synthesized using the TnT in vitro transcription-translation kit (Promega) according to the manufacturer's protocols. Each 50 μl TnT reaction contained 2.0 μg of template plasmid DNA and 20 μmol (20 μCi) of labeled ^35S-methionine. The POTH1:GAD/BEL complex was immunoprecipitated with anti-GAD antibodies (Santa Cruz Biotechnology, Calif.). The proteins from the pellet (one-half the fraction) and for the prey (one-fourth of the reaction volume) were resolved on a 10% SDS-PAGE gel and visualized by autoradiography.

The target in the next experiment is T2, GAD protein alone (UniProt P04386 768-881, limits assumed).
T2 construct: Control of the immunoprecipitation
T2 sequence (looked up): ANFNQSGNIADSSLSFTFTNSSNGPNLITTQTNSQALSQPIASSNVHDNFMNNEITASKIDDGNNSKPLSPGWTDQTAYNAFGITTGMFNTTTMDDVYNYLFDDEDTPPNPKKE
Put plainly: in vitro translated 35S-labelled proteins, immunoprecipitation with anti-GAD antibodies. The protocol: as §2

Experiment [4] has as its target T3, StBEL-05 protein from pGEM11Z (in vitro transcription/translation) (Solanum tuberosum).
T3 construct: 35S-methionine labelled prey; also called p11Z-5
T3 chain: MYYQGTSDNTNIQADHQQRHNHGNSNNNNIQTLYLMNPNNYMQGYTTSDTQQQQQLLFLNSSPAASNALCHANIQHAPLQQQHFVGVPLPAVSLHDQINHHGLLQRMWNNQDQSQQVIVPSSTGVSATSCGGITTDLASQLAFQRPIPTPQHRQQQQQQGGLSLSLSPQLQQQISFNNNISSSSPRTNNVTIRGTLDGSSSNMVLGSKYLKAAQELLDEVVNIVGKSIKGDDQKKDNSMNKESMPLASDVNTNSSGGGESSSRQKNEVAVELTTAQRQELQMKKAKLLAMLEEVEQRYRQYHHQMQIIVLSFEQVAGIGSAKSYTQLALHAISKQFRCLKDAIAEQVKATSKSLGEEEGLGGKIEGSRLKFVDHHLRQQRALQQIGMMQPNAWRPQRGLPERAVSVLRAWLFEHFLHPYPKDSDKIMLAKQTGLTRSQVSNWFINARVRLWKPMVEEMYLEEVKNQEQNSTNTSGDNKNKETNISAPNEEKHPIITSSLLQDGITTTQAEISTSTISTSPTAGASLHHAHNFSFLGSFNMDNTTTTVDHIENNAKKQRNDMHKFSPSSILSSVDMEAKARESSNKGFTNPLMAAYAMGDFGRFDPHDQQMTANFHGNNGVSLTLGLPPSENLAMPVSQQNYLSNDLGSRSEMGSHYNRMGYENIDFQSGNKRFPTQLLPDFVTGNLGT
In words: in vitro binding protocol (pull-down). The protocol:
as §2

Experiment [5] has as its target T1, GAD:POTH1 fusion protein. In words: in vitro translated 35S-labelled proteins, co-immunoprecipitation with anti-GAD antibodies, SDS-PAGE autoradiography. The procedure:
as §2

The target of experiment [6] is T4, POTH1 in pBridge (full-length POTH1 fused with the GAL4 DNA-binding domain) (Solanum tuberosum).
T4 construct: Bait of the yeast two-hybrid screen and partner of the StBEL-05 deletion constructs; also called pBHD; pBridge:POTH1
In words: quantitative yeast two-hybrid beta-galactosidase assay.
Excerpt: as §1, with “*E. coli*” for “E. coli”, “(*S. tuberosum* 'Desireé')” for “(S. tuberosum ‘Desireé’)”, “1000 ×OD420/time” for “1000×OD420/time”, “(ml)×$OD600$.” for “(ml)×OD600.”
The StBEL-05 deletion constructs were amplified by PCR, then cloned into the vector, pGAD, in-frame with the GAL4 activation domain. POTH1 deletion constructs were amplified by PCR, and cloned into pBridge (Clontech) in-frame with the GAL4 binding domain. Sequencing of selected cDNAs and constructs was performed at the Iowa State University DNA Facility. […]

B1: StBEL-13 protein from pGEM11Z (in vitro transcription/translation) (other)
chain: MVMGGGASSQQLGYAKNHTPNVAESMQLFLMNPQPRSPSPSPPNSTSSTLHMLLPNPSSTSTLQGFPNPAEGSFGQFITWGNGGASAATATHHLNAQNEIGGVNVVESQGLSLSLSSSLQHKAEELQMSGEAGGMMFFNQGGSSTSGQYRYKNLNMGGSGVSPNIHQVHVGYGSSLGVVNVLRNSKYAKAAQELLEEFCSVGRGKLKKTNNKAAANNPNTNPSGANNEASSKDVPTLSAADRIEHQRRKVKLLSMVDEVDRRYNHYCEQMQMVVNSFDLVMGFGTAVPYTALAQKAMSRHFRCLKDAIGAQLKQSCELLGEKDAGNSGLTKGETPRLKMLEQSLRQQRAFHQMGMMEQEAWRPQRGLPERSVNILRAWLFEHFLHPYPSDADKHLLARQTGLSRNQVSNWFINARVRLWKPMVEDMYQQEAKDEDGDGDEKSQSQNSGNNIIAQTPTPNSLTNTSSTNMTTTTAPTTTTALAAAETGTAATPITVTSSKRSQINATDSDPSLVAINSFSENQATFPTNIHDPDDCRRGNLSGDDGTTTHDHMGSTMIRFGTTAGDVSLTLGLRHAGNLPENTHFFG
notes: 35S-methionine labelled prey; also called p11Z-13
As to B1, in the experiment with POTH1 [1], the “interaction with POTH1” value was “showed selective interaction”. The “pull-down by POTH1 in immunoprecipitation” value in the experiment with POTH1 [2] was “pulled down”. For the same molecule, the binding result with GAD:POTH1 fusion protein [3] is recorded as “binds”; with GAD protein alone, “no binding”.

B2: pBHD9 construct as used in the in vitro binding protocol (other)
chain: MDDEMYGFHSTRDDYADKALMSPENLMMQTEYNNFHNYTNSSILTSNPMMFGSDDIQLSSEQTNSFSTMTLQNNDNIYQIRSGNCGGGSGSGGSSKDHNDNNNNNEDYDEDGSN
As to B2, the binding result in experiment [4] was “no binding”.

B3: StBEL-30 protein from pGEM11Z (in vitro transcription/translation) (other)
chain: MATYFPSPNNQRDADQTFQYFRQSLPESYSEASNAPENMMVFMNYSSSGAYSDMLTGTSQQQHNCIDIPSIGATPFNTSQQEILSNLGGSQMGIQDFSSWRDSRNEMLADNVFQVAQNVQGQGLSLSLGSNIPSGIGISHVQSQNPNQGGGFNMSFGDGDNSQPKEQRNADYFPPDNPGRDLDAMKGYNSPYGTSSIARTIPSSKYLKAAQYLLDEVVSVRKAIKEQNSKKELTKDSRESDVDSKNISSDTPANGGSNPHESKNNQSELSPTEKQEVQNKLAKLLSMLDEIDRRYRQYYHQMQIVVSSFDVVAGEGAAKPYTALALQTISRHFRCLRDAICDQIRASRRSLGEQDASENSKAIGISRLRFVDHHIRQQRALQQLGMMQQHAWRPQRGLPESSVSVLRAWLFEHFLHPYPKDSDKIMLARQTGLTRSQVSNWFINARVRLWKPMVEEMYKEEAGDAKIDSNSSSDVAPRLATKDSKVEERGELHQNAASEFEQYNSGQILESKSNHEADVEMEGASNAETQSQSGMENQTGEPLPAMDNCTLFQDAFVQSNDRFSEFGSFGSGNVLPNGVSLTLGLQQGEGSNLPMSIETHVSYVPLRADDMYSTAPTTMVPETAEFNCLDSGNRQQPFWLLPSAT
notes: 35S-methionine labelled prey; also called p11Z-30
In the case of B3, the “interaction with POTH1” value in the experiment with POTH1 [1] is “showed selective interaction”. Also, the “pull-down by POTH1 in immunoprecipitation” value in the experiment with POTH1 [2] was “pulled down”. Further, the binding result is reported as “no binding” with GAD protein alone and “binds” with GAD:POTH1 fusion protein [5].

B4: pAD5-1 (StBEL-05 deletion construct in pGAD) (other, not shown: small tags and cut ends)
chain: KNEVAVELTTAQRQELQMKKAKLLAMLEEVEQRYRQYHHQMQIIVLSFEQVAGIGSAKSYTQLALHAISKQFRCLKDAIAEQVKATSKSLGEEEGLGGKIEGSRLKFVDHHLRQQRALQQIGMMQPNAWRPQRGLPERAVSVLRAWLFEHFLHPYPKDSDKIMLAKQTGLTRSQVSNWFINARVRLWKPMVEEMYLEEVKNQEQNSTNTSGDNKNKETNISAPNEEKHPIITSSLLQDGITTTQAEISTSTISTSPTAGASLHHAHNFSFLGSFNMDNTTTTVDHIENNAKKQRNDMHKFSPSSILSSVDMEAKARESSNKGFTNPLMAAYAMGDFGRFDPHDQQMTANFHGNNGVSLTLGLPPSENLAMPVSQQNYLSNDLGSRSEMGSHYNRMGYENIDFQSGNKRFPTQLLPDFVTGNLGT
notes: Lacks the SKY box; residues converted from pAD-05 numbering
Take B4: the “decrease in the induction of the lacZ marker (beta-galactosidase activity) relative to the full-length construct, StBEL-05” value in experiment [6] was 55%.
